# B1: TAK1dn: dominant-negative TAK1 mutant (K63W), kinase inactive (protein)
# chain: MSTASAASSSSSSSASEMIEAPSQVLNFEEIDYKEIEVEEVVGRGAFGVVCKAKWRAKDVAIWQIESESERKAFIVELRQLSRVNHPNIVKLYGACLNPVCLVMEYAEGGSLYNVLHGAEPLPYYTAAHAMSWCLQCSQGVAYLHSMQPKALIHRDLKPPNLLLVAGGTVLKICDFGTACDIQTHMTNNKGSAAWMAPEVFEGSNYSEKCDVFSWGIILWEVITRRKPFDEIGGPAFRIMWAVHNGTRPPLIKNLPKPIESLMTRCWSKDPSQRPSMEEIVKIMTHLMRYFPGADEPLQYPCQYSDEGQSNSATSTGSFMDIASTNTSNKSDTNMEQVPATNDTIKRLESKLLKNQAKQQSESGRLSLGASRGSSVESLPPTSEGKRMSADMSEIEARIVATAGNGQPRRRSIQDLTVTGTEPGQVSSRSSSPSVRMITTSGPTSEKPARSHPWTPDDSTDTNGSDNSIPMAYLTLDHQLQPLAPCPNSKESMAVFEQHCKMAQEYMKVQTEIALLLQRKQELVAELDQDEKDQQNTSRLVQEHKKLLDENKSLSTYYQQCKKQLEVIRSQQQKRQGTS
# modifications: left off: small tags and cut ends
# Key:
# C3H10T½-BMP2 cells [1] = assay: FACS for apoptosis and cell cycle progression; assay type: cell-based, murine; settings: CDDP 25 μM; etoposide 10 μM; TAK1 variants stably co-expressed
# Protocol: Exponentially growing cells were harvested 48 hours post-seeding or at different stages at and after confluence by trypsinization and fixation with 80% methanol. Cellular DNA content was determined by staining cells with RNAseS/propidium iodide, and measuring fluorescence in a Becton Dickinson FACScan. For each cell population, 10,000 cells were analyzed, and the proportions in G0/G1, G2/M and S-phases were estimated by using Modfit cell cycle analysis software. Information on cell size (e.g. due to differentiation) and complexity could be obtained from forward and side scatter data following evaluation of relevant cell populations.
# To determine whether TAK1-mediated effects in the assay systems above resulted from apoptosis, C3H10T½-BMP2 cells co-expressing TAK1 variants were assayed by FACS for apoptosis and cell cycle progression.
# C3H10T½-BMP2 cells [2] = assay: Semi-quantitative RT-PCR of osteo-/chondrogenic marker genes and Alcian Blue staining; assay type: cell-based, murine; settings: co-expression in C3H10T½-BMP2 cells
# Protocol: Proteoglycan-secreting chondrocytes were identified by staining with Alcian Blue at pH 2.5 (Alcian Blue 8GS, Roth, Karlsruhe).
# Total cellular RNA was prepared by TriReagent LS according to the manufacturer's protocol (Molecular Research Center Inc., Ohio, Miss.). Five μg of total RNA was reverse transcribed with oligo-dT primers and cDNA aliquots were subjected to PCR. RT-PCR was normalized by the transcriptional levels of HPRT. The primer pairs and PCR conditions used to evaluate osteo-/chondrogenic differentiation, for collagen Ia1, collagen IIa1, osteocalcin, and the PTH/PTHrP-receptor have been described (Hoffmann A et al, J. Cell Sci 115: 769-781, 2002).
# SMAD proteins = assay: Co-immunoprecipitation of TAK1 variants with SMADs from HEK293T cells; assay type: binding; settings: SMAD7, R-SMADs 1-3, 5, SMAD4
# Protocol: Co-immunoprecipitation were conducted as described (Verschueren K et al, J. Biol. Chem, 274: 20489-20498, 1999). Human embryonic kidney (HEK) 293T cells were plated at 3×10^6 cells/petri dish (55 square centimeters (cm^2)) one day prior to transfection. For transient transfections, 1 μg of Flag-tagged expression plasmid and 2 μg of Myc- or HA-tagged expression plasmids were utilized. DNA content was normalized with empty vector. Transfections were performed with FuGENE6 (Roche, Mannheim). Roughly 36 hours post-transfection cells were dislodged from dishes and harvested by centrifugation. Pellets were shock frozen in liquid nitrogen. […] reactions were performed in lysis buffer. Cell extracts and immunoprecipitates were analyzed by SDS-PAGE and Western blot analysis using the appropriate antibodies.
# Toward this end, co-immunoprecipitation with various combinations of wild-type TAK1 (TAK1wt) and R-SMADs, either in a latent form or post-activation by constitutively active BMP type I receptor (ALK6ca, BMPR-IB) or activin type I receptor ALK4ca (ActR-IB), I-SMADs and SMAD4, were conducted. […] TAK1 interaction with R-SMADs was typically stronger in the absence of constitutively active receptors (the exception being SMAD3), which may reflect a reduced affinity for activated, i.e. phosphorylated R-SMADs by TAK1, except with SMAD3.
# SMAD proteins only bind TAK1 with an intact or a constitutively active kinase domain. Different TAK1 variants such as TAK1wt, TAK1ca, TAK1dn and two deletions, TAKDN (lacking amino acids 1-300; FIG. 1a) and TAKDC (lacking 301-606; FIG. 1a), respectively, were tested for their ability to bind to R-SMADs (using SMAD1 as a representative) or I-SMAD6 and I-SMAD7.
# [3] = tested on: nucleo-cytoplasmic shuttling of SMAD1 and SMAD3; assay: Immunofluorescence of Flag-tagged SMAD1 and SMAD3 localisation in HEK293T cells; assay type: cell-based, human; settings: Flag-tagged SMADs
# Protocol: HEK293T cells were seeded at 2×10^5 cells/well into poly-D-lysine coated 6-well plates one day prior to transfection. Transient transfections were conducted with Fugene 6. After 30 hours, the cells were fixed with 4% paraformaldehyde in phosphate buffered saline (PBS) for 10 minutes, washed twice with PBS, and permeabilized with methanol followed by 0.5% Triton-X 100 in PBS. After washing with 0.1% Triton-X 100 in PBS (PBT), blocking was performed with 5% FCS in PBT for 1 hour at room temperature. Following another PBT wash, tagged proteins were incubated with the appropriate primary antibodies. Detection was accomplished via goat anti mouse-Alexa 488 (A-11001, Molecular Probes) (5 μg/ml) antibody for murine primary antibodies.
# To determine whether TAK1-dependent interference with SMAD activity affected subcellular distribution of SMAD, immunofluorescence was used to localize flag-tagged SMAD1 or SMAD3 expressed in HEK293T cells in the absence or presence of constitutively active receptors (FIG. 7).
# [4] = tested on: SMAD1-mediated transcription; assay: SMAD1-SBE CAT reporter assay; assay type: cell-based, human; settings: following activation by constitutively active receptors
# Protocol: Reporter assays using the GALA DNA binding domain fused to various forms of SMAD proteins were performed as described (Meersseman, G at al, Mech. Dev, 61: 127-140, 1997). Briefly, 420 nanograms (ng) DNA was transfected/well (24 well-plate seeded with 1×10^5 HEK 293T cells) one day prior to transfection. The DNA mix included a plasmid expressing β-galactosidase under the control of the RSV promoter, for normalization purposes and a reporter plasmid encoding firefly luciferase under the control of 5 GAL4 binding sites upstream of a minimal TATA box (pG5 luc, Promega, Mannheim) and combinations of effector plasmids. The DNA content was normalized with empty vector.
# Cells were harvested and lysed. β-Galactosidase (β-gal) activity was measured via the luminescent β-galactosidase kit II (Clontech, Palo Alto, Calif.), and luciferase activity via the luciferase assay system (Promega, Mannheim). All results are expressed as luciferase activity normalized with β-gal values (“relative luciferase activities”). Reporter assays with the SMAD1 DNA binding element SBE-9 (GCCG×9) (Kusanagi K et al, Mol Biol Cell 11: 555-565, 2000) cloned into pCAT5 vector (Boshart M et al, Gene 110: 129-130, 1992) were performed similarly except that cells were lysed in CAT lysis buffer. CAT enzyme was measured via CAT ELISA assay and β-gal via chemiluminescent β-gal reporter gene assay (Roche, Mannheim). […]
molecule,measurement,setting,value
B1,apoptosis (subG0-G1 peak),C3H10T½-BMP2 cells [1],did not induce apoptosis
same,"expression of osteogenic marker genes (osteocalcin, PTH/PTHrP receptor)",C3H10T½-BMP2 cells [2],no effect
same,binding of TAK1 variant to SMAD proteins (co-immunoprecipitation),SMAD proteins,blocked binding
same,subcellular localisation of SMAD1 and SMAD3,[3],predominantly in the nucleus
same,"inhibition of SMAD1 transcription (CAT reporter), in words",[4],minimal inhibition
